Results reported in US6927041B2, “Human neuropeptide Y-like G protein-coupled receptor” (Bayer Corporation, priority 2000, dated 2005).
Where no end group is shown, it is not given here.

target: T1, human NPY-like GPCR (Homo sapiens, UniProt Q96P65); test: Binding affinity of known peptides for the human NPY-like GPCR; details: human neuropeptide Y-like G protein-coupled receptor (SEQ ID NO:2); qualitative statement
T1 construct: expressed in transfected cells; host or cells: HEK293 (human embryonic kidney 293) cells, membrane preparation
T1 sequence (Q96P65 1-431): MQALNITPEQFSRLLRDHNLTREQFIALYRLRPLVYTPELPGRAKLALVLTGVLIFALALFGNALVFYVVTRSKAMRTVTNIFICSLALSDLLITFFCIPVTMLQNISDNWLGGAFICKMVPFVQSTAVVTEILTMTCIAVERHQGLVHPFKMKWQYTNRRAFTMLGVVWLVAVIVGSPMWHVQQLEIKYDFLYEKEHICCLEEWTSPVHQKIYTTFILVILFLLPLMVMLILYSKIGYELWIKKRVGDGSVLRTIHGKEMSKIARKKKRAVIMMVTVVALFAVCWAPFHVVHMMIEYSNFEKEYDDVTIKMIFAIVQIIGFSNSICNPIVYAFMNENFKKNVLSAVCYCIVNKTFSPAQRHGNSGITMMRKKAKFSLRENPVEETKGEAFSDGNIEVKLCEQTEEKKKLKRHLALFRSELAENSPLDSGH
Protocol: Human embryonic kidney 293 cells transfected with a polynucleotide that expresses human NPY-like GPCR are scraped from a culture flask into 5 ml of Tris HCl, 5 mM EDTA, pH 7.5, and lysed by sonication. Cell lysates are centrifuged at 1000 rpm for 5 minutes at 4° C. The supernatant is centrifuged at 30,000×g for 20 minutes at 4° C. The pellet is suspended in binding buffer containing 50 mM Tris HCl, 5 mM MgSO4, 1 mM EDTA, 100 mM NaCl, pH 7.5, supplemented with 0.1% BSA, 2 μg/ml aprotinin, […], and 10 μg/ml phosphoramidon. Optimal membrane suspension dilutions, defined as the protein concentration required to bind less than 10% of the added radioligand, are added to 96-well polypropylene microtiter plates containing ^125I-labeled ligand or test compound, non-labeled peptides, and binding buffer to a final volume of 250 μl.
In equilibrium saturation binding assays, membrane preparations are incubated in the presence of increasing concentrations (0.1 nM to 4 nM) of ^125I-labeled ligand or test compound (specific activity 2200 Ci/mmol). The binding affinities of different test compounds are determined in equilibrium competition binding assays, using 0.1 nM ^125I-peptide in the presence of twelve different concentrations of each test compound.
Binding reaction mixtures are incubated for one hour at 30° C. […] Radioactivity is measured by scintillation counting, and data are analyzed by a computerized non-linear regression program.
Non-specific binding is defined as the amount of radioactivity remaining after incubation of membrane protein in the presence of 100 nM of unlabeled peptide. Protein concentration is measured by the Bradford method using Bio-Rad Reagent, with bovine serum albumin as a standard. A test compound which […] the radioactivity of membrane protein by at least 15% relative to radioactivity of membrane protein that was not incubated with a test compound is identified as a compound which binds to a human NPY-like GPCR polypeptide.

Neuropeptide Y was tested. Which “binding affinity for the receptor” value did it give?
Its value is “do not appear to have binding affinity”.

Which “binding affinity for the receptor” value does the source give for “orexin-A (QPLPDCCRQKTCSCRLYELLHGAGNHAAGILTL; ends and bridges not checked; cysteine pairing not given here; UniProt O43612 34-66, looked up)” here?
Its value is “do not appear to have binding affinity”.

For “peptide YY: peptide that stimulates the Y1 receptor”, which “binding affinity for the receptor” value is on record?
Its value is “do not appear to have binding affinity”.
